Measured values reported in PMC11857385, “Parametric Cyclic Voltammetric Analysis of an Electrochemical Aptasensor for Staphylococcus aureus Iron-Regulated Surface Determinant Protein A Detection”.

Target: T1, IsdA (iron-regulated surface determinant protein A) (Staphylococcus aureus, UniProt A6QG31 47-316)
T1 sequence: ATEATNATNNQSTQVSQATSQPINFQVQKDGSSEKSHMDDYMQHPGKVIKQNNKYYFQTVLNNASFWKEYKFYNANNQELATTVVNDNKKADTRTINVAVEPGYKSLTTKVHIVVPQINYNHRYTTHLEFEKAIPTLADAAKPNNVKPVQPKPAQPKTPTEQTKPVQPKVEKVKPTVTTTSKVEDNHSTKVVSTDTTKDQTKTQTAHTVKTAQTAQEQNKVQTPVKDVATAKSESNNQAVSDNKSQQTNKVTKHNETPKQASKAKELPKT
Test: cyclic voltammetry and EIS; pH 7.5, 25 °C, 5 mM [Fe(CN)6]3-/4-, 0.1 M KCl; Aptamer (5 µM, 4 h) immobilized on SPCE/AuNPs, 2-MCE block; CV in 5 mM [Fe(CN)6]3-/4-, 0.1 M KCl, pH 7.5 (also 4.5, 10.5), 25 °C (also 4, 37 °C); zeta potential in water, room temperature
Details: label: FAM dye applied in imaging; 1 strand

GCGCACGCGUGUGUAGUACACACGAUCGCGCGCACAAUAU (ssRNA, amine for coupling to AuNP carboxyl groups implied; position not stated) [anti-IsdA aptamer]: binds.
